From patent publication US20250026843A1 (ANHUI BIOX VISION BIOLOGICAL TECHNOLOGY, published 2025)

How the values were obtained:
[1] = target: T1, P17-His fusion protein (extracellular domain of human CD40 with a His tag) (human, UniProt P25942 21-193); test: ELISA, P17-His coated on plate, anti-human Fc-HRP detection
T1 construct: range 21-193; not shown: His tag
Protocol: The obtained 4 bispecific antibodies were detected for affinity against the extracellular domain of human CD40 (Uniprot: positions 21 to 193 of P25942) through ELISA. The extracellular domain of human CD40 carried a His tag, also referred to herein as a P17-His fusion protein.
2 μg/mL of the P17-His fusion protein was coated onto a 96-well ELISA plate at 30 μL per well at 4° C. overnight. The next day, after encapsulating in 5% PBSM (PBS+5% Milk) at room temperature for 2 h, serially diluted (20 nM in the first well, 10-fold dilution in the second well, 3-fold dilution in the third to seventh wells, and 4-fold dilution in the seventh to eighth wells) anti-CD40×CLDN18.2 bispecific antibody, positive control APX005 (sequence derived from Apexigen Inc. US20120301488A1, prepared in the laboratory), or isotype IgG1 negative control were added. After culturing at room temperature for 1 h, washed 3 times with PBST (PBS+0.05% Tween-20), and then 30 μL of Goat-anti-human-Fc-HRP (abcam, ab97225) was added. After culturing at room temperature for 1 h, washed 3 times with PBST (PBS+0.05% Tween-20), and TMB colorimetric solution was added for color development for 5 to 30 min. After termination, OD450 was detected through a microplate reader (Beckman Coulter), and the results were analyzed and plotted through Graphpad 7.0 to evaluate the binding of the bispecific antibody to the P17-His fusion protein.

[2] = target: T2, human CLDN18.1 expressed on the cell surface of HEK293 cells (human, UniProt P56856 1-261); test: flow cytometry on 18.1-HEK293 cells
T2 construct: whole, on cells
T2 sequence (looked up): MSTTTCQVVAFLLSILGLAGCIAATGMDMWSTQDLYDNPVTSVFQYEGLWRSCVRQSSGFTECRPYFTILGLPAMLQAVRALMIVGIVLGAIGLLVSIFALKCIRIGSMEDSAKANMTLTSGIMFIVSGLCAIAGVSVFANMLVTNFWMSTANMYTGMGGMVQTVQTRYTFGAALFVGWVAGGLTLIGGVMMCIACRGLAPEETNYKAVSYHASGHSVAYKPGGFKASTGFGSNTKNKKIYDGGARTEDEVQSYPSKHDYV
Protocol: (§1) After culturing at 4° C. for 30 min, the cells were washed and added with 100 μL of 1:300 diluted PE-labeled Goat F(ab′)₂ Anti-human Fc (PE) and cultured at 4° C. for 30 min. The cells were then washed and the binding of the bispecific antibody to CLDN18.1 molecules expressed on the surface of HEK293 cells was detected through flow cytometry.

[3] = target: T3, human CLDN18.2 expressed on the cell surface of HEK293 cells (human, UniProt P56856-2 1-261); test: flow cytometry on 18.2-HEK293 cells
T3 construct: whole, on cells
T3 sequence (looked up): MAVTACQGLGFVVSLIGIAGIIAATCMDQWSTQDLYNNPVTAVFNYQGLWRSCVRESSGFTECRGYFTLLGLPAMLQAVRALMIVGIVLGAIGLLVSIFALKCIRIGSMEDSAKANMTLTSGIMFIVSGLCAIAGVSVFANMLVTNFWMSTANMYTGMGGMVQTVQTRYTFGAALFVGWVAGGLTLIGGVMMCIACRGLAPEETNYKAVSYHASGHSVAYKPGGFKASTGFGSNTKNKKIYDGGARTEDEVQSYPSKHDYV
Protocol: as §1, with “diluted” for “diluted PE-labeled”, “cultured” for “cultured at 4° C.”, “CLDN18.2” for “CLDN18.1 molecules”

T1 sequence (P25942 21-193 limits assumed): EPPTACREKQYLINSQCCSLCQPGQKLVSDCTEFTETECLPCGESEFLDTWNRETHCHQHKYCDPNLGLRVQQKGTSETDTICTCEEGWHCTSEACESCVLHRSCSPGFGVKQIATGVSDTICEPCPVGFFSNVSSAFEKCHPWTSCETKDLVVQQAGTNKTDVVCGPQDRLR

| Binder | EC50 [1] [pM] | binding result [2] | binding result [3] |
| --- | --- | --- | --- |
| APX005 (antibody, V domains shown) VH: QVQLVESGGGVVQPGRSLRLSCAASGFSFSSTYVCWVRQAPGKGLEWIACIYTGDGTNYSASWAKGRFTISKDSSKNTVYLQMNSLRAEDTAVYFCARPDITYGFAINFWGPGTLVTVSS VL: DIQMTQSPSSLSASVGDRVTIKCQASQSISSRLAWYQQKPGKPPKLLIYRASTLASGVPSRFSGSGSGTDFTLTISSLQPEDVATYYCQCTGYGISWPIGGGTKVEIK | 61.2 |  |  |
| C8-WT-NA3S-HC (bispecific antibody, human IgG1, kappa, N297Q, Fc is hIgG1 N297Q; also called anti-CD40×CLDN18.2 bispecific antibody; bispecific antibody of the present invention) heavy: not shown light: DIQLTQSPSSLTASVGDRVTITCRSSQGIRSSLAWYQQKPGKPPKLLIYGASSLEGGVPSRFSGSGSGTDFTLTISSLQPEDFATYYCQQLNSFPSTFGQGTKLEIKRTVAAPSVFIFPPSDEQLKSGTASVVCLLNNFYPREAKVQWKVDNALQSGNSQESVTEQDSKDSTYSLSSTLTLSKADYEKHKVYACEVTHQGLSSPVTKSFNRGEC | 110 | no binding (tested: 115.6 nM highest concentration tested) | binds |
| C8-2-NA3S-HC (bispecific antibody, human IgG1, kappa, N297Q, Fc is hIgG1 N297Q; also called anti-CD40×CLDN18.2 bispecific antibody; bispecific antibody of the present invention) heavy: not shown light: DIQLTQSPSSLTASVGDRVTITCRSSQGIRSSLAWYQQKPGKPPKLLIYGASSLEGGVPSRFSGSGSGTDFTLTISSLQPEDFATYYCQQLNSFPSTFGQGTKLEIKRTVAAPSVFIFPPSDEQLKSGTASVVCLLNNFYPREAKVQWKVDNALQSGNSQESVTEQDSKDSTYSLSSTLTLSKADYEKHKVYACEVTHQGLSSPVTKSFNRGEC | 127 | no binding (tested: 115.6 nM highest concentration tested) | binds |
| C8-6-NA3S-HC (bispecific antibody, human IgG1, kappa, N297Q, Fc is hIgG1 N297Q; also called anti-CD40×CLDN18.2 bispecific antibody; bispecific antibody of the present invention) heavy: not shown light: DIQLTQSPSSLTASVGDRVTITCRSSQGIRSSLAWYQQKPGKPPKLLIYGASSLEGGVPSRFSGSGSGTDFTLTISSLQPEDFATYYCQQLNSFPSTFGQGTKLEIKRTVAAPSVFIFPPSDEQLKSGTASVVCLLNNFYPREAKVQWKVDNALQSGNSQESVTEQDSKDSTYSLSSTLTLSKADYEKHKVYACEVTHQGLSSPVTKSFNRGEC | 102 | no binding (tested: 115.6 nM highest concentration tested) | binds |
| C8-10-NA3S-HC (bispecific antibody, human IgG1, kappa, N297Q, Fc is hIgG1 N297Q; also called anti-CD40×CLDN18.2 bispecific antibody; bispecific antibody of the present invention) heavy: not shown light: DIQLTQSPSSLTASVGDRVTITCRSSQGIRSSLAWYQQKPGKPPKLLIYGASSLEGGVPSRFSGSGSGTDFTLTISSLQPEDFATYYCQQLNSFPSTFGQGTKLEIKRTVAAPSVFIFPPSDEQLKSGTASVVCLLNNFYPREAKVQWKVDNALQSGNSQESVTEQDSKDSTYSLSSTLTLSKADYEKHKVYACEVTHQGLSSPVTKSFNRGEC | 104 | no binding (tested: 115.6 nM highest concentration tested) | binds |
